Measured values reported in paper PMC10516938, “Conformational dynamics of cohesin/Scc2 loading complex are regulated by Smc3 acetylation and ATP binding” (Nature Communications, 2023).
Changes are numbered by the printed parent chain.

B1: Scc2 D369C (natural protein, S. cerevisiae, UniProt Q04002 1-1493, looked up)
chain: MSYPGKDKNIPGRIIEALEDLPLSYLVPKDGLAALVNAPMRVSLPFDKTIFTSADDGRDVNINVLGTANSTTSSIKNEAEKERLVFKRPSNFTSSANSVDYVPTNFLEGLSPLAQSVLSTHKGLNDSINIEKKSEIVSRPEAKHKLESVTSNAGNLSFNDNSSNKKTKTSTGVTMTQANLAEQYLNDLKNILDIVGFDQNSAEIGNIEYWLQLPNKKFVLTTNCLTKLQMTIKNITDNPQLSNSIEITWLLRLLDVMVCNIKFSKSSLKMGLDDSMLRYIALLSTIVLFNIFLLGKNDSNLHRESYIMEPVNFLSDLIESLKILTIEYGSLKIEFDTFQEALELLPKYIRNGPFLDDNVTAKLVYIFSCLLMNNDIEATTNIQFQSFWDNVKRISSDILVSLFGSFDQQRGFIIEELLSHIEKLPTKRIQKKLRKVGNQNIYITDFTFTLMSMLENINCYSFCNQMKDIAPENIDLLKNEYKKQEEFLFNIVEHINDTILERFFKNPSALRYVIDNFVQDLLLLISSPQWPVTEKILSSLLKRLLSVYSPSMQVSANIETICLQLIGNIGSTIFDIKCSTRDHEDNNLIKMINYPETLPHFFKSFEECIAYNETIKCRRSATRFLWNLRLGTILILEEYTKDAKEQIITVDNELKKILEQIKDGGLGPELENREADFSTIKLDYFSILHAFELLNLYDPYLKLILSLLAKDKIKLRSTAIKCLSMLASKDKVILSNPMVKETIHRRLNDSSASVKDAILDLVSINSSYFEFYQQINNNYNDDSIMVRKHVLRINEKMYDETNDIVTKVYVIARILMKIEDEEDNIIDMARLILLNRWILKVHEVLDQPEKLKEISSSVLLVMSRVAIMNEKCSQLFDLFLNFYLLNKEAHSKEAYDKITHVLTILTDFLVQKIVELNSDDTNEKNSIVDKQNFLNLLAKFADSTVSFLTKDHITALYPYMVSDEKSDFHYYILQVFRCTFEKLANFKQKFLYDLETTLLSRLPKMNVREIDEAMPLIWSVATHRHDTARVAKACSSCLSHLHPYINKANNEEAAIVVDGKLQRLIYLSTGFARFCFPKPSNDKIAFLQEGETLYEHITKCLLVLSKDKITHVIRRVAVKNLTKLCGNHPKLFNSRHVLHLLDKEFQSDQLDIKLVILESLYDLFLLEERKSVRNTGVNSTLSSNSILKKKLLKTNRVEFANDGVCSALATRFLDNILQLCLLRDLKNSLVAIRLLKLILKFGYTNPSHSIPTVIALFASTSQYIRHVAYELLEDLFEKYETLVFSSLSRGVTKAIHYSIHTDEKYYYKHDHFLSLLEKLCGTGKKNGPKFFKVLKRIMQSYLDDITDLTSTNSSVQKSIFVLCTNISNITFVSQYDLVSLLKTIDLTTDRLKEVIMDEIGDNVSSLSVSEEKLSGIILIQLSLQDLGTYLLHLYGLRDDVLLLDIVEESELKNKQLPAKKPDISKFSAQLENIEQYSSNGKLLTYFRKHVKDT
notes: Scc2, S. cerevisiae; source: S. cerevisiae W303, in vivo, whole-cell extract
B2: Scc2 T1175C (natural protein, S. cerevisiae, UniProt Q04002 1-1493, looked up)
chain: B1 chain with C369D, T1175C
notes: as for B1

What was measured:
[1] = biological target: T1, Smc3^QQ K1004C (S. cerevisiae, UniProt P47037 1-1230, K112Q | K113Q | K1004C); assay: cross-linking; in vivo BMOE cross-link of cysteine pairs in yeast cells arrested in late G1 by non-degradable Sic1(9m); Scc1-PK immunoprecipitated, western blot, band intensities quantified; settings: partners not purified
T1 construct: Smc3, S. cerevisiae; source: S. cerevisiae W303, late G1 arrested cells, whole-cell extract
T1 sequence (looked up): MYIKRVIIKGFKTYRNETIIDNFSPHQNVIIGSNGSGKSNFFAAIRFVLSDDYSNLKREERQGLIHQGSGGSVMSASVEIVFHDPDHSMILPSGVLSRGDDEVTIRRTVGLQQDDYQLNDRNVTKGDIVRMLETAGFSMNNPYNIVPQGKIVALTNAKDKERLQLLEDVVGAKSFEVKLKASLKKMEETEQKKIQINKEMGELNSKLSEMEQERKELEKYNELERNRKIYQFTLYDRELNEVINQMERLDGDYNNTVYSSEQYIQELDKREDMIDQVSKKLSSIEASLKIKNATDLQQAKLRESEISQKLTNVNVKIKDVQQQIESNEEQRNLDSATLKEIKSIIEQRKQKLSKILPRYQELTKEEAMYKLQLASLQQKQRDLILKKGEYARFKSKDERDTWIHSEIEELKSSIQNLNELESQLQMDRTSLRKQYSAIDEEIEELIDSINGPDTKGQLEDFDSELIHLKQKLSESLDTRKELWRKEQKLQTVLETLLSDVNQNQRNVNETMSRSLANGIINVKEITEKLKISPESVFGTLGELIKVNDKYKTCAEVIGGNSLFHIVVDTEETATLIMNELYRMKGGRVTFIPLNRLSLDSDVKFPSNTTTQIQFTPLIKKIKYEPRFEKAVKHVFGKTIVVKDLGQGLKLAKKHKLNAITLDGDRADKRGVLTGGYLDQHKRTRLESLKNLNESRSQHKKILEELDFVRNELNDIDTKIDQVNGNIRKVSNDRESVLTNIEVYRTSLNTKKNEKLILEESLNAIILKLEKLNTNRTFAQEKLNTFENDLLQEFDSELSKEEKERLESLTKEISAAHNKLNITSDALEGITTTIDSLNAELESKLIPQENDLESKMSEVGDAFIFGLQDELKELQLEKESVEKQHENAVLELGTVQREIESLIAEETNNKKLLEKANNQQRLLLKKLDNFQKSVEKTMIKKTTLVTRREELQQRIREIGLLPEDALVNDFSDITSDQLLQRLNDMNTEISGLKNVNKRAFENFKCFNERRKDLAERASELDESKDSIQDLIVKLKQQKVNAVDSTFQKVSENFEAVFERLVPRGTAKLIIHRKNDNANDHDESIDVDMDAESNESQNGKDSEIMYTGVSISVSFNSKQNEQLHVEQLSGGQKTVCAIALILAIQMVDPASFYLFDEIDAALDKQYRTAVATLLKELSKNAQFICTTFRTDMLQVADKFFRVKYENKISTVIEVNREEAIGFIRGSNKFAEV

[2] = biological target: T2, Smc3^QQ R1008I Q67C (S. cerevisiae, UniProt P47037 1-1230, Q67C | K112Q | K113Q | R1008I); assay: as above; settings: partners not purified
T2 construct: Smc3, S. cerevisiae; also called smc3-QQ Q67C with R1008I; source: S. cerevisiae W303, late G1 arrested cells, whole-cell extract
T2 sequence (looked up): T1 sequence (looked up) with Q67C, C1004K, R1008I

Row | Binder | crosslinking efficiency relative to wild type [1] [%] | crosslink relative to wild-type Smc3 [2] [%]
1 | B1 | ~10 | –
2 | B2 | – | ~40
